Source: paper doi:10.1101/715409 (bioRxiv, 2019)

T1: GST fusion to Boi1 (1-203) (Saccharomyces cerevisiae, UniProt P38041 1-203)
T1 sequence: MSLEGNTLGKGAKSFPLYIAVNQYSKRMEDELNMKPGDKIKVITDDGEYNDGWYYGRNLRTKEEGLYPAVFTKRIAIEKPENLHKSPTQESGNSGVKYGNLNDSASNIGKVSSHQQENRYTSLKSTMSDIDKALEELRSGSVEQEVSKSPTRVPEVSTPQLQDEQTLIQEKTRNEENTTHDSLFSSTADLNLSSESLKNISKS

B1: 6xHis Bud6_(1-141) (domain or fragment)
chain: MKMAVDDPTYGTPKIKRTASSSSSIETTVTKLLMSTKHLLQVLTQWSKGTTSGRLVSDAYVQLGNDFKVVSKFFMHAKVDMSDVGDVPMALRRVLEVTLREPPSDETLNKHLPKIREIIVTLLDKLKVKQAILKNMQQEHR

How the values were obtained:
[1] = molecular target: T1, GST fusion to Boi1 (1-203); test: pull-down
[2] = molecular target: B1; test: pull-down

Binder | binding result [1] | binding result [2]
B1 | binds | 
GST fusion to Boi_(77-178) (domain or fragment) IEKPENLHKSPTQESGNSGVKYGNLNDSASNIGKVSSHQQENRYTSLKSTMSDIDKALEELRSGSVEQEVSKSPTRVPEVSTPQLQDEQTLIQEKTRNEENT |  | binds
